From article PMC10495343

Key:
collagen I [1] = target: collagen I (UniProt P02452); assay: SPR; Biacore X100; collagen I or collagen III immobilised by amine coupling on a CM5 chip (around 1000 RU); CBD-SA-IL-4 flowed 90 s (collagen I) or 30 s (collagen III) at 30 μl/min; Langmuir 1:1 fit with drifting baseline
collagen III = collagen III (UniProt P02461); assay: as above
collagen I [2] = target: collagen I (UniProt P02452); assay: SPR

Sequence of collagen I (P02452 162-1218, chain 1 of 2): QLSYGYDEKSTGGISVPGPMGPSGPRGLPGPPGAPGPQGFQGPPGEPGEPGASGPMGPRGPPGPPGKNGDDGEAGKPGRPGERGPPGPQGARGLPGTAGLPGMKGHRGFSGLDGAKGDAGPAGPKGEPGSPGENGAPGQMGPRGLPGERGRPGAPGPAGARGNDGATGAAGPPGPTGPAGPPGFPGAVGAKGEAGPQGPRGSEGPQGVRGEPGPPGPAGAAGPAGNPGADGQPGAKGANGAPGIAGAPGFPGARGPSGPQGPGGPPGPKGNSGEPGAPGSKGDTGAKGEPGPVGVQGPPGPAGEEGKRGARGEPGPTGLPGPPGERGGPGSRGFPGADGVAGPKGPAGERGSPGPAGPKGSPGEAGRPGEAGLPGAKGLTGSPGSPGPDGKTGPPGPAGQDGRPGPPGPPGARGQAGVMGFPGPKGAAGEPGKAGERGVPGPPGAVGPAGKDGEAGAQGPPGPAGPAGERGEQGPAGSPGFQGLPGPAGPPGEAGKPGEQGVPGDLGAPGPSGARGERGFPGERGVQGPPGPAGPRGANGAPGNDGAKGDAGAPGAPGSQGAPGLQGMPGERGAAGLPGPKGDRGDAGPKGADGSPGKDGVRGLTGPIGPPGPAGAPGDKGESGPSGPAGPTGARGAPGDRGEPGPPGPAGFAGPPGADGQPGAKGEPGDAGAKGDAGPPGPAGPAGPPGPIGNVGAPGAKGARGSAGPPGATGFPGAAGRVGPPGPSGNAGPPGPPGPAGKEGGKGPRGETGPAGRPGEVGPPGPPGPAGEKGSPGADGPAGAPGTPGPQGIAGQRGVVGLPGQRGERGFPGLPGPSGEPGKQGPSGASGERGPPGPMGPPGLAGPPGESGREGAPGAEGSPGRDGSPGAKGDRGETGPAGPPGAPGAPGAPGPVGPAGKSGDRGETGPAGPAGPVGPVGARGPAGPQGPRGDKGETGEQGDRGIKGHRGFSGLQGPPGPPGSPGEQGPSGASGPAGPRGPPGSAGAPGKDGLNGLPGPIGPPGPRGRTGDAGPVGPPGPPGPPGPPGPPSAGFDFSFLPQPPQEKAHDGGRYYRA
Sequence of collagen I (P08123 80-1119, chain 2 of 2, further chain): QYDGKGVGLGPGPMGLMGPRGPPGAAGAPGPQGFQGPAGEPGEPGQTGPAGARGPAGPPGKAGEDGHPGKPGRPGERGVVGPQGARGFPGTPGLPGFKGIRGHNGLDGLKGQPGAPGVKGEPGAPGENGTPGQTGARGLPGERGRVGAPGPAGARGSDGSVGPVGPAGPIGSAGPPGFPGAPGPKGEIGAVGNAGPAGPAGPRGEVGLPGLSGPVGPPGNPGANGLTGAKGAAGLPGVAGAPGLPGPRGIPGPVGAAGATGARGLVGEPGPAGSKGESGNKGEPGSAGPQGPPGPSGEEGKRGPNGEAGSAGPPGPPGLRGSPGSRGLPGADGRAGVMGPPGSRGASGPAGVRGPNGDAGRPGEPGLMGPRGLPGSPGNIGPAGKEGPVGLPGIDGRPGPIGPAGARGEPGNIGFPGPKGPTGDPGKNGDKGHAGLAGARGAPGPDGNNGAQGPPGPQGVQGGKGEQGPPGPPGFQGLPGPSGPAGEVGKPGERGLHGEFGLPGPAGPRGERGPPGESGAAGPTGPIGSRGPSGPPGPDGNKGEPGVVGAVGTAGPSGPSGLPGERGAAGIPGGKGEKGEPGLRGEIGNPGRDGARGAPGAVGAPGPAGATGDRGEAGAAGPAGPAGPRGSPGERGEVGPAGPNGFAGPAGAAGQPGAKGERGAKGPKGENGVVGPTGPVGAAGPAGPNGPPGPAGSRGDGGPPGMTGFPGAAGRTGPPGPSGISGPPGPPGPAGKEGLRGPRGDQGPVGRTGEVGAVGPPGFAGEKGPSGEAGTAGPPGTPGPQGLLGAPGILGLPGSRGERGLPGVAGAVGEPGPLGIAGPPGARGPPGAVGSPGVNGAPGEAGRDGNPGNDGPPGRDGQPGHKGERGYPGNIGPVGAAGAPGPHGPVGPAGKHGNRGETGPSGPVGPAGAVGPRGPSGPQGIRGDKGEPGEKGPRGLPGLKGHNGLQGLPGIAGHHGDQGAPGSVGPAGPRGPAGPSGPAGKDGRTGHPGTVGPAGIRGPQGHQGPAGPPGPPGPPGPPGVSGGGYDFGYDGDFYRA
Sequence of collagen III (P02461 154-1221): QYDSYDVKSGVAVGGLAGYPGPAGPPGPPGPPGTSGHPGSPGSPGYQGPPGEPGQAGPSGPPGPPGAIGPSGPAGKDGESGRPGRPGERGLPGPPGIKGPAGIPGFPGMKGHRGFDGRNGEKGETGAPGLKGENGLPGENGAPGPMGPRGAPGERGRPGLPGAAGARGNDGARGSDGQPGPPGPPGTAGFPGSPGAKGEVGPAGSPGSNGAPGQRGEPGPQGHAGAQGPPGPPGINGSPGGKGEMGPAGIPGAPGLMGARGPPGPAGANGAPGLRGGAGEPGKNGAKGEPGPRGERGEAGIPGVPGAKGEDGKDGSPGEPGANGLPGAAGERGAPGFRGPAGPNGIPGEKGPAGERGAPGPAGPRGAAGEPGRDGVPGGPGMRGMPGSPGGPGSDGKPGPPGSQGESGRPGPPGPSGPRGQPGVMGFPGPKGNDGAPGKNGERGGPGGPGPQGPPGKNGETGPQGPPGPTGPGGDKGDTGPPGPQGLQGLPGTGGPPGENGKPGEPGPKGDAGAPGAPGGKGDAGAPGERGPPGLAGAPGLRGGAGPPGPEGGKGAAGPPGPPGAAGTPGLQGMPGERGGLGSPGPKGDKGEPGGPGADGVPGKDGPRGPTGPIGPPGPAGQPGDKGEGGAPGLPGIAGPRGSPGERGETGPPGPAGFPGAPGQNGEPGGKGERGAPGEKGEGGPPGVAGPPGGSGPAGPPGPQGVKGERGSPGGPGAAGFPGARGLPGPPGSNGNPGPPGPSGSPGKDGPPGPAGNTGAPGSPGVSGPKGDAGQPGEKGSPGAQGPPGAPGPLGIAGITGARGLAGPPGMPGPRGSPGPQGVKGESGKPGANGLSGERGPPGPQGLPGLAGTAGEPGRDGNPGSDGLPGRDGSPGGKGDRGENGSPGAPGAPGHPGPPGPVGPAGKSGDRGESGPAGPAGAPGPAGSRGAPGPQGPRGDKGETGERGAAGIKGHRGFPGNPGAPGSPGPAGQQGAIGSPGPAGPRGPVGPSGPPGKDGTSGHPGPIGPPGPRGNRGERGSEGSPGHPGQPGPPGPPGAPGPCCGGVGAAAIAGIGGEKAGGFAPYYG

Kd (collagen I [1])	Kd (collagen III)	koff (collagen I [2])	Substance
8 nM	37 nM		collagen-binding, serum albumin-fused IL-4 variant (CBD-SA-IL-4)
		0.0026 s⁻¹	collagen-binding, serum albumin-fused IL-4 variant (CBD-SA-IL-4) (from UniProt P04275)
